# Publication PMC9396027, “Comparative transcriptome analysis of MDBK cells reveals that BoIFN-γ augmented host immune responses to bovine herpesvirus 1 infection” (Frontiers in Microbiology, 2022)
# Target: the molecule itself
# Test: SEC; Superdex 200 size exclusion column, refolded BoIFN-γ; peak mass compared with the monomer mass (14.2 kDa)
protein,measurement,value
"Bovine interferon gamma (BoIFN-γ) (ligand, UniProt P07353 24-166, looked up, Bovine interferon gamma; synthesised gene encoding 122 amino acids, according to GenBank EU276066, nucleotides 24-390; monomer 14.2 kDa; Cloned into pET-21a(+); 122 amino acids is shorter than the mature protein as I recall it, so the construct is probably truncated; also called Bovine IFN-γ; bovine interferon gamma dimer protein) QGQFFREIENLKEYFNASSPDVAKGGPLFSEILKNWKDESDKKIIQSQIVSFYFKLFENLKDNQVIQRSMDIIKQDMFQKFLNGSSEKLEDFKKLIQIPVDDLQIQRKAINELIKVMNDLSPKSNLRKRKRSQNLFRGRRASM",stoichiometry N,2
